# Target: CD33 (Sino Biological, Cat #12238-H08H) (UniProt P20138 18-259)
# Assay: BLI, IgG captured on anti-human Fc sensor, 50 nM CD33, pH 7.4 vs pH 5.4
# Sequence of CD33 (Sino Biological, Cat #12238-H08H) (P20138 18-259 limits assumed): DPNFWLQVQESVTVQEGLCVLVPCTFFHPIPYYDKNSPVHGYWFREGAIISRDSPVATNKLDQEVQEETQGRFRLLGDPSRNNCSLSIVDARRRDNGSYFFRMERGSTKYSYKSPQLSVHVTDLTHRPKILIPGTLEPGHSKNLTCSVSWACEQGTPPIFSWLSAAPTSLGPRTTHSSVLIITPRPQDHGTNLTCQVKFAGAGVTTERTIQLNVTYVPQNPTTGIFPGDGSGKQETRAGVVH
row,binding result,Binder
1,binds,"MYT2619 (antibody, V domains shown, IgG; IMGN779 VL variant #3 (S26H)) VH: QVQLQQPGAEVVKPGASVKMSCKASGYTFTSYYIHWIKQTPGQGLEWVGVIYPGNDDISYNQKFQGKATLTADKSSTTAYMQLSSLTSEDSAVYYCAREVRLRYFDVWGQGTTVTVSS VL: EIVLTQSPGSLAVSPGERVTMSCKSHQSVFFSSSQKNYLAWYQQIPGQSPRLLIYWASTRESGVPDRFTGSGSGTDFTLTISSVQPEDLAIYYCHQYLSSRTFGQGTKLEIK"
2,binds,"MYT2632 (antibody, V domains shown, IgG; IMGN779 VL variant #16 (L39H)) VH: QVQLQQPGAEVVKPGASVKMSCKASGYTFTSYYIHWIKQTPGQGLEWVGVIYPGNDDISYNQKFQGKATLTADKSSTTAYMQLSSLTSEDSAVYYCAREVRLRYFDVWGQGTTVTVSS VL: EIVLTQSPGSLAVSPGERVTMSCKSSQSVFFSSSQKNYHAWYQQIPGQSPRLLIYWASTRESGVPDRFTGSGSGTDFTLTISSVQPEDLAIYYCHQYLSSRTFGQGTKLEIK"
3,binds,"MYT2623 (antibody, V domains shown, IgG; IMGN779 VL variant #7 (F30H)) VH: QVQLQQPGAEVVKPGASVKMSCKASGYTFTSYYIHWIKQTPGQGLEWVGVIYPGNDDISYNQKFQGKATLTADKSSTTAYMQLSSLTSEDSAVYYCAREVRLRYFDVWGQGTTVTVSS VL: EIVLTQSPGSLAVSPGERVTMSCKSSQSVHFSSSQKNYLAWYQQIPGQSPRLLIYWASTRESGVPDRFTGSGSGTDFTLTISSVQPEDLAIYYCHQYLSSRTFGQGTKLEIK"
4,binds,"MYT2634 (antibody, V domains shown, IgG; IMGN779 VL variant #18 (W56H)) VH: QVQLQQPGAEVVKPGASVKMSCKASGYTFTSYYIHWIKQTPGQGLEWVGVIYPGNDDISYNQKFQGKATLTADKSSTTAYMQLSSLTSEDSAVYYCAREVRLRYFDVWGQGTTVTVSS VL: EIVLTQSPGSLAVSPGERVTMSCKSSQSVFFSSSQKNYLAWYQQIPGQSPRLLIYHASTRESGVPDRFTGSGSGTDFTLTISSVQPEDLAIYYCHQYLSSRTFGQGTKLEIK"
5,binds,"MYT2628 (antibody, V domains shown, IgG; IMGN779 VL variant #12 (Q35H)) VH: QVQLQQPGAEVVKPGASVKMSCKASGYTFTSYYIHWIKQTPGQGLEWVGVIYPGNDDISYNQKFQGKATLTADKSSTTAYMQLSSLTSEDSAVYYCAREVRLRYFDVWGQGTTVTVSS VL: EIVLTQSPGSLAVSPGERVTMSCKSSQSVFFSSSHKNYLAWYQQIPGQSPRLLIYWASTRESGVPDRFTGSGSGTDFTLTISSVQPEDLAIYYCHQYLSSRTFGQGTKLEIK"
6,binds,"MYT2631 (antibody, V domains shown, IgG; IMGN779 VL variant #15 (Y38H)) VH: QVQLQQPGAEVVKPGASVKMSCKASGYTFTSYYIHWIKQTPGQGLEWVGVIYPGNDDISYNQKFQGKATLTADKSSTTAYMQLSSLTSEDSAVYYCAREVRLRYFDVWGQGTTVTVSS VL: EIVLTQSPGSLAVSPGERVTMSCKSSQSVFFSSSQKNHLAWYQQIPGQSPRLLIYWASTRESGVPDRFTGSGSGTDFTLTISSVQPEDLAIYYCHQYLSSRTFGQGTKLEIK"
7,binds,"MYT2622 (antibody, V domains shown, IgG; IMGN779 VL variant #6 (V29H)) VH: QVQLQQPGAEVVKPGASVKMSCKASGYTFTSYYIHWIKQTPGQGLEWVGVIYPGNDDISYNQKFQGKATLTADKSSTTAYMQLSSLTSEDSAVYYCAREVRLRYFDVWGQGTTVTVSS VL: EIVLTQSPGSLAVSPGERVTMSCKSSQSHFFSSSQKNYLAWYQQIPGQSPRLLIYWASTRESGVPDRFTGSGSGTDFTLTISSVQPEDLAIYYCHQYLSSRTFGQGTKLEIK"
8,binds,"MYT2620 (antibody, V domains shown, IgG; IMGN779 VL variant #4 (Q27H)) VH: QVQLQQPGAEVVKPGASVKMSCKASGYTFTSYYIHWIKQTPGQGLEWVGVIYPGNDDISYNQKFQGKATLTADKSSTTAYMQLSSLTSEDSAVYYCAREVRLRYFDVWGQGTTVTVSS VL: EIVLTQSPGSLAVSPGERVTMSCKSSHSVFFSSSQKNYLAWYQQIPGQSPRLLIYWASTRESGVPDRFTGSGSGTDFTLTISSVQPEDLAIYYCHQYLSSRTFGQGTKLEIK"
9,binds,"MYT2626 (antibody, V domains shown, IgG; IMGN779 VL variant #10 (S33H)) VH: QVQLQQPGAEVVKPGASVKMSCKASGYTFTSYYIHWIKQTPGQGLEWVGVIYPGNDDISYNQKFQGKATLTADKSSTTAYMQLSSLTSEDSAVYYCAREVRLRYFDVWGQGTTVTVSS VL: EIVLTQSPGSLAVSPGERVTMSCKSSQSVFFSHSQKNYLAWYQQIPGQSPRLLIYWASTRESGVPDRFTGSGSGTDFTLTISSVQPEDLAIYYCHQYLSSRTFGQGTKLEIK"
10,binds,"MYT2621 (antibody, V domains shown, IgG; IMGN779 VL variant #5 (S28H)) VH: QVQLQQPGAEVVKPGASVKMSCKASGYTFTSYYIHWIKQTPGQGLEWVGVIYPGNDDISYNQKFQGKATLTADKSSTTAYMQLSSLTSEDSAVYYCAREVRLRYFDVWGQGTTVTVSS VL: EIVLTQSPGSLAVSPGERVTMSCKSSQHVFFSSSQKNYLAWYQQIPGQSPRLLIYWASTRESGVPDRFTGSGSGTDFTLTISSVQPEDLAIYYCHQYLSSRTFGQGTKLEIK"
11,binds,"MYT2630 (antibody, V domains shown, IgG; IMGN779 VL variant #14 (N37H)) VH: QVQLQQPGAEVVKPGASVKMSCKASGYTFTSYYIHWIKQTPGQGLEWVGVIYPGNDDISYNQKFQGKATLTADKSSTTAYMQLSSLTSEDSAVYYCAREVRLRYFDVWGQGTTVTVSS VL: EIVLTQSPGSLAVSPGERVTMSCKSSQSVFFSSSQKHYLAWYQQIPGQSPRLLIYWASTRESGVPDRFTGSGSGTDFTLTISSVQPEDLAIYYCHQYLSSRTFGQGTKLEIK"
12,binds,"MYT2629 (antibody, V domains shown, IgG; IMGN779 VL variant #13 (K36H)) VH: QVQLQQPGAEVVKPGASVKMSCKASGYTFTSYYIHWIKQTPGQGLEWVGVIYPGNDDISYNQKFQGKATLTADKSSTTAYMQLSSLTSEDSAVYYCAREVRLRYFDVWGQGTTVTVSS VL: EIVLTQSPGSLAVSPGERVTMSCKSSQSVFFSSSQHNYLAWYQQIPGQSPRLLIYWASTRESGVPDRFTGSGSGTDFTLTISSVQPEDLAIYYCHQYLSSRTFGQGTKLEIK"
13,binds,"MYT2624 (antibody, V domains shown, IgG; IMGN779 VL variant #8 (F31H)) VH: QVQLQQPGAEVVKPGASVKMSCKASGYTFTSYYIHWIKQTPGQGLEWVGVIYPGNDDISYNQKFQGKATLTADKSSTTAYMQLSSLTSEDSAVYYCAREVRLRYFDVWGQGTTVTVSS VL: EIVLTQSPGSLAVSPGERVTMSCKSSQSVFHSSSQKNYLAWYQQIPGQSPRLLIYWASTRESGVPDRFTGSGSGTDFTLTISSVQPEDLAIYYCHQYLSSRTFGQGTKLEIK"
14,binds,"MYT2627 (antibody, V domains shown, IgG; IMGN779 VL variant #11 (S34H)) VH: QVQLQQPGAEVVKPGASVKMSCKASGYTFTSYYIHWIKQTPGQGLEWVGVIYPGNDDISYNQKFQGKATLTADKSSTTAYMQLSSLTSEDSAVYYCAREVRLRYFDVWGQGTTVTVSS VL: EIVLTQSPGSLAVSPGERVTMSCKSSQSVFFSSHQKNYLAWYQQIPGQSPRLLIYWASTRESGVPDRFTGSGSGTDFTLTISSVQPEDLAIYYCHQYLSSRTFGQGTKLEIK"
15,binds,"MYT2625 (antibody, V domains shown, IgG; IMGN779 VL variant #9 (S32H)) VH: QVQLQQPGAEVVKPGASVKMSCKASGYTFTSYYIHWIKQTPGQGLEWVGVIYPGNDDISYNQKFQGKATLTADKSSTTAYMQLSSLTSEDSAVYYCAREVRLRYFDVWGQGTTVTVSS VL: EIVLTQSPGSLAVSPGERVTMSCKSSQSVFFHSSQKNYLAWYQQIPGQSPRLLIYWASTRESGVPDRFTGSGSGTDFTLTISSVQPEDLAIYYCHQYLSSRTFGQGTKLEIK"

# Source: patent US20220324969A1 (MYTHIC THERAPEUTICS, published 2022)
